Data from patent US20020160955A1 (published 2002).
Substitutions are numbered along the chain they refer to.

Columns and labels:
Assay in all cases: competitive phage ELISA
[1] = target: T1, IGF-I T29A (G1S-A70V background) displayed on phage (human; bacteriophage M13)
T1 construct: monovalent M13 phage display; not shown: M13 gene III fragment (residues 249-406, display partner) and the junction to it
T1 chain: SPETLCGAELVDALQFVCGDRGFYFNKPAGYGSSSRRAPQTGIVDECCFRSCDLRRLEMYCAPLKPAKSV
Description: (§1) Phage particles were harvested and resuspended in PBS buffer as described in Lowman, H. B., “Phage Display of Peptide Libraries on Protein Scaffolds,” in Cabilly, S. (ed.), Combinatorial Peptide Library Protocols (Humana Press Inc.: Totowa, N.J., 1998), pp. 249-264. Then phage concentrations were normalized to yield a maximal ELISA signal of 0.2-0.4 for each mutant (Lowman, in Cabilly, S. (ed.), supra). Threefold serial dilutions of soluble competitor were prepared on non-absorbent microtiter plates (Nunc, F, 96 wells) with binding buffer (0.5% TWEEN™ 20/PBS) containing phage at the previously-determined concentrations. […] After blocking, the plates containing immobilized target were washed with 0.05% TWEEN™/PBS buffer and subsequently incubated with 80 μl/well of the premixed phage-competitor solutions for 1 hour at room temperature. After washing, bound phage was detected with 80 μl/well of a solution containing a primary rabbit anti-phage polyclonal antibody and a secondary goat anti-rabbit monoclonal antibody-horseradish peroxidase conjugate in 0.5% TWEEN 20™/PBS. o-Phenylenediamine (Sigma) and tetramethylbenzidine (Kirkegaard and Perry) were used as chromogenic substrates, resulting in product detection at 492 and 450 nm, respectively. IC₅₀ values were determined by fitting the binding data to a generic saturation curve (Lowman, in Cabilly, S. (ed.), supra). […] Numbers in Table I represent mean +standard deviation of individually assessed IC₅₀ values.
(§2) At least two different clones of every mutant were tested.

[2] = target: T2, IGF-I S35A (G1S-A70V background) displayed on phage (human; bacteriophage M13)
T2 construct: monovalent M13 phage display
T2 chain: T1 chain with A29T, S35A
Description: as §1, §2

[3] = target: T3, IGF-I V17A (G1S-A70V background) displayed on phage (human; bacteriophage M13)
T3 construct: monovalent M13 phage display
T3 chain: T1 chain with V17A, A29T
Description: as §1, §2

[4] = target: T4, IGF-I K68A (G1S-A70V background) displayed on phage (human; bacteriophage M13, UniProt P69168 267-424)
T4 chain: T1 chain with A29T, K68A
Description: as §1, §2

[5] = target: T5, IGF-I Y60A (G1S-A70V background) displayed on phage (human; bacteriophage M13)
T5 construct: monovalent M13 phage display; not shown: M13 gene III protein fragment (residues 249-406), the phage display carrier, and its junction to IGF-I
T5 chain: T1 chain with A29T, Y60A
Description: as §1, §2

[6] = target: T6, des(1-2)-IGF-I displayed on phage (human; bacteriophage M13)
T6 construct: range 249-406; monovalent M13 phage display
Description: as §1, §2

[7] = target: T7, IGF-I P28A (G1S-A70V background) displayed on phage (human; bacteriophage M13)
T7 construct: monovalent M13 phage display; not shown: M13 gene III fragment (residues 249-406, display partner) and the junction to it
T7 chain: T1 chain with P28A, A29T
Description: as §1, §2

[8] = target: T8, IGF-I R21A (G1S-A70V background) displayed on phage (human; bacteriophage M13, not fully specified; Displayed monovalently on M13 phage as a C-terminal fusion to the gene III fragment, which is left out of the letters.)
T8 construct: monovalent M13 phage display; not shown: Display carrier: M13 gene III fragment (residues 249-406) and its junction
T8 chain: T1 chain with R21A, A29T
Description: as §1, §2

[9] = target: T9, IGF-I K65A (G1S-A70V background) displayed on phage (human; bacteriophage M13)
T9 construct: monovalent M13 phage display; not shown: M13 gene III protein fragment (residues 249-406), the phage display carrier, and its junction to IGF-I
T9 chain: T1 chain with A29T, K65A
Description: as §1, §2

[10] = target: T10, IGF-I L54A (G1S-A70V background) displayed on phage (human; bacteriophage M13)
T10 construct: monovalent M13 phage display
T10 chain: T1 chain with A29T, L54A
Description: as §1, §2

[11] = target: T11, IGF-I Y24A (G1S-A70V background) displayed on phage (human; bacteriophage M13, not fully specified; Displayed monovalently on M13 phage as a C-terminal fusion to the gene III fragment, which is left out of the letters.)
T11 construct: monovalent M13 phage display; not shown: Display carrier: M13 gene III fragment (residues 249-406) and its junction
T11 chain: T1 chain with Y24A, A29T
Description: as §1, §2

[12] = target: T12, IGF-I L14A (G1S-A70V background) displayed on phage (human; bacteriophage M13)
T12 construct: monovalent M13 phage display
T12 chain: T1 chain with L14A, A29T
Description: as §1, §2

[13] = target: IGF-I V70A (G1S-A70V background) displayed on phage (human; bacteriophage M13, UniProt P69168 267-424)
Description: as §1, §2

[14] = target: T13, IGF-I N26A (G1S-A70V background) displayed on phage (human; bacteriophage M13, not fully specified; Displayed monovalently on M13 phage as a C-terminal fusion to the gene III fragment, which is left out of the letters.)
T13 construct: monovalent M13 phage display; not shown: Display carrier: M13 gene III fragment (residues 249-406) and its junction
T13 chain: T1 chain with N26A, A29T
Description: as §1, §2

[15] = target: T14, IGF-I D12A (G1S-A70V background) displayed on phage (human; bacteriophage M13)
T14 construct: monovalent M13 phage display
T14 chain: T1 chain with D12A, A29T
Description: as §1, §2

B1: human IGFBP-1 (other, UniProt P08833 26-259, looked up)
chain: APWQCAPCSAEKLALCPPVSASCSEVTRSAGCGCCPMCALPLGAACGVATARCARGLSCRALPGEQQPLHALTRGQGACVQESDASAPHAAEAGSPESPESTEITEEELLDNFHLMAPSEEDHSILWDAISTYDGSKALHVTNIKKWKEPCRIELYRVVESLAKAQETSGEEISKFYLPNCNKNGFYHSRQCETSMDGEAGLCWCVYPWNGKRIPGSPEIRGDPNCQIYFNVQN
notes: secreted recombinant protein purified from conditioned medium
Question: Which IC50 [1] does the source give for B1 here?
Answer: 7.3 nM

Question: And the IC50 [2]?
Answer: 11.7 nM

Question: What about the IC50 [3] of the same binder?
Answer: 42.9 nM

Question: And the IC50 [4]?
Answer: 10.5 nM

Question: And the IC50 [5]?
Answer: 6.6 nM

Question: And the IC50 [6]?
Answer: 5 nM

Question: What about the IC50 [7] of the same binder?
Answer: 9.3 nM

Question: What about the IC50 [8] of the same binder?
Answer: 7.1 nM

Question: And the IC50 [9]?
Answer: 12.4 nM

Question: And the IC50 [10]?
Answer: 23.1 nM

Question: And the IC50 [11]?
Answer: 13.3 nM

Question: And the IC50 [12]?
Answer: 36.7 nM

Question: And the IC50 [13]?
Answer: 19.1 nM

Question: What about the IC50 [14] of the same binder?
Answer: 9.1 nM

Question: And the IC50 [15]?
Answer: 4.3 nM
